Assay results taken from paper PMC10824877, “Assessment of bioactive peptides derived from laminin-111 as prospective breast cancer-targeting agents” (Amino Acids, 2024).
Entries after “also recorded” stand apart in the source; their conditions may differ. No end group written: not given here. *: point of attachment. 131I = iodine-131 radiolabel on tyrosine, [131I]*

Columns and labels:
[1] = Radiochemical stability in saline; type: physicochemical
Procedure: (§1) The radiochemical stability of the radiopeptides was evaluated in two distinct environments: in saline (n = 3), at room temperature and under refrigeration (4–8 °C), by a period of 48 h after the radiolabeling, and in serum (n = 5), at 37 °C, for up to 24 h after incubation. At predefined time intervals, aliquots were extracted and subjected to ascending chromatography, as previously detailed.

[2] = Radiochemical stability in serum; type: in vitro ADME; conditions: 37 °C, up to 24 h
Procedure: as §1

[^131I]I-KAFDITYVRLKF: laminin-111 γ1 chain C16 peptide KAFDITYVRLKF radiolabeled with iodine-131 at the central tyrosine residue (KAFDITY(131I)VRLKF)
decrease of radiochemical purity ([1]; after 24 h, room temperature or under refrigeration): approximately 50% | radiochemical purity remaining ([1]; both storage conditions, within the specified time interval): around 50% | radiochemical stability in serum [2]: unstable; also recorded: radiochemical instability within the first hour
